Measured values as given in patent CN116018351A (SHANGHAI YOUTI JISHENG BIOMEDICAL CO LTD, dated 2023).

T1: CD123-Fc重组蛋白 (human, UniProt P26951 19-305)
T1 construct: also called CD123-Fc蛋白; 人CD123-Fc; not shown: Fc part
T1 sequence: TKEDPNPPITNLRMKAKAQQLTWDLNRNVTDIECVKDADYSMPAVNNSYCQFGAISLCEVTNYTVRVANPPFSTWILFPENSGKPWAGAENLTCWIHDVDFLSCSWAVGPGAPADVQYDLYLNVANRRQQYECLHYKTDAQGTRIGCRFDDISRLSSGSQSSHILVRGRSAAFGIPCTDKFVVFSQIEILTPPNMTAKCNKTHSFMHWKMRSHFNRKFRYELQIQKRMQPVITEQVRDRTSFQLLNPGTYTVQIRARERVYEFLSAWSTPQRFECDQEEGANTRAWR


Molecular target: T1, CD123-Fc重组蛋白
Experiment: FACS staining of CAR T cells with CD123-Fc recombinant protein

Row | Binder | binding result
1 | 抗CD123 scFv-C30 (in a CAR on T cells) (scFv, Human scFv from phage display; not shown: rest of the CAR, hinge domain to CD3-zeta domain) scFv: AIRLTQSPSSLSASVGDRVTITCQASQNINNYLNWYQQKSGKAPKLLIYDASNLEAGVPSRFSGSASGTDFTFTISSLQPEDIATYYCQQNDNLPLTFGQGTRLEIKGGGGSGGGGSGGGGSEVQLVESGGGVVRPGGSLRLSCAASGFTFGDYGMSWVRQAPGKGLEWVSGINWNGGSTGYADSVKGRFTISRDNAKNSLYLQMNSLRAEDTALYYCARDRAPDYGDYLQVGTTDYWGQGTLVTVSS | binds
2 | 抗CD123 scFv-C18 (in a CAR on T cells) (scFv, Human scFv from phage display; not shown: rest of the CAR, hinge domain to CD3-zeta domain) scFv: QSALTQPASVSGSPGQSITISCTGTSSDVGGYNYVSWYQQHPGKAPKLMIYDVSNRPSGVSNRFSGSKSGNTASLTISGLQAEDEADYYCSSYTSSSTLFVFGTGTELTVLGGGGSGGGGSGGGGSQVQLQESGPGLVKPSQTLSLTCTVSGGSISSGDYYWSWIRQSPGKGLEWIGYIHSTGTTYYNPSLKSRLTISLDTSKNQFSLKLNSVTAADTAVYYCARGGVGTIFNYWGQGTLVTVSS | binds
3 | 抗CD123 scFv-C17 (in a CAR on T cells) (scFv, Human scFv from phage display; not shown: rest of the CAR, hinge domain to CD3-zeta domain) scFv: QSALTQPASVSGSLGQSITISCTGTSSDVGTYDYVSWYQQHPGKAPKLMIYDVTYRPSGVSHRFSGSKSGNTASLTISGLQADDEADYYCQQYNNWPPRYTFGQGTKVEIKGGGGSGGGGSGGGGSQVQLVQSGAEVEKPGASVKLSCTASGYNFNSYYMHWVRLTPGQGLEWMGLINPTNGRTTYAQKFQGRVTMTGDTSTRTVYLALSSLRSEDSALYYCARGSPPHIFDPDFDYWGQGTLVTVSS | binds
4 | 抗CD123 scFv-C26 (in a CAR on T cells) (scFv, Human scFv from phage display; not shown: rest of the CAR, hinge domain to CD3-zeta domain) scFv: QSVLTQPPSASGTPGQRVTISCSGSRSNIGSNTVSWYQQFPGTAPKLLIYLNNQRPSGVPDRFSGSKSGTSASLAISGLQSEDEAEYYCATWDDDLNGVFGGGTKLTVLGGGGSGGGGSGGGGSEVQLVESGGGLVQPGGSLRLSCAASGFTLSNFEMNWVRQAPGRGLEWVSYISATTSATSYADSVKGRFTISRDNAKNSLYLQMNSLRAEDTAVYYCARVRDGYNFGYYYYYMDVWGKGTTVTVSS | binds
5 | 抗CD123 scFv-C11 (in a CAR on T cells) (scFv, Human scFv from phage display; also called 抗-CD123-C11; not shown: rest of the CAR, hinge domain to CD3-zeta domain) scFv: QSVVTQPPSASGTPGQRVTISCSGSSSNIGSNYVYWYQQLPGTAPKLLIYRNNQRPSGVPDRFSGSKSGTSASLAISGLRSEDEADYYCAAWDDSLSGYVFGTGTKLTVLGGGGSGGGGSGGGGSEVQLVESGGGLVQPGRSLRLSCTASGFTFGDYAMSWVRQAPGKGLEWVGFIRSKAYGGTTEYAASVKGRFTISRDDSKSIAYLQMNSLKTEDTAVYYCTRDIGYYGSGSYSPFDYWGQGTLVTVSS | binds
6 | 抗CD123 scFv-C29 (in a CAR on T cells) (scFv, Human scFv from phage display; not shown: rest of the CAR, hinge domain to CD3-zeta domain) scFv: QPVLTQPPSASGTPGQRVTISCSGSSSNIGSNYVYWYQQLPGTAPKLLIYRNNQRPSGVPDRFSGSKSGTSASLAISGLRSEDEADYYCAAWDDSLSGYVFGTGTKVTVLGGGGSGGGGSGGGGSEVHLVESGGGLVQPGRSLRLSCTASGFTFGDYAMSWVRQAPGKGLEWVGFIRSKAYGGTTEYAASVKGRFTISRDDSKSIAYLQMNSLKTEDTAVYYCTRDIGYYGSGSYSPFDYWGQGTLVTVSS | binds
7 | 抗CD123 scFv-C2 (in a CAR on T cells) (scFv, Human scFv from phage display; not shown: rest of the CAR, hinge domain to CD3-zeta domain) scFv: QSVVTQPPSVSAAPGQKVTISCSGSSSNIGNNYVSWYQQFPGTAPKLLIYDNNKRPSGIPDRFSGSKSGTSGTLGITGLQTGDEADYYCVTWDTSLSAGVFGGGTKLTVLGGGGSGGGGSGGGGSQITLKESGGGLVKPGGSLRLSCAASGFTFSNAWMSWVRQAPGKGLEWVGRIKSKTDGGTTDYAAPVKGRFTISRDDSKNTLYLQMNSLKTEDTAVYYCTTDPHGYYYGMDVWGQGTTVTVSS | binds
8 | 抗CD123 scFv-C5 (in a CAR on T cells) (scFv, Human scFv from phage display; also called 抗-CD123-C5; not shown: rest of the CAR, hinge domain to CD3-zeta domain) scFv: NFMLTQPHSVSESPGKTVTLSCTRSSGSIAGSYVQWYQQRPGSSPTTVIFQDNQRPSGVPDRFSGSIDKSSNSASLTISGLKTEDEADYYCQSYDSNNQVFGGGTKLTVLGGGGSGGGGSGGGGSEVHLVESGGGVVRPGGSLRLSCAASGFTFGDYGMSWVRQAPGKGLEWVSGINWNGGRTGYADSVKGRFTISRDNAKNSLYLQMNSLRAEDTALYYCARARGSGSYFGYMDVWGKGTTVTVSS | binds
9 | 抗CD123 scFv-C4 (in a CAR on T cells) (scFv, Human scFv from phage display; not shown: rest of the CAR, hinge domain to CD3-zeta domain) scFv: QSALTQPPSASGTPGQRVTISCSGSSSNIGSNYVNWYQQLPGTAPKLLIYRNNQRPSGVPDRFSGSKSGTSASLAISGLRSEDEADYYCAAWDDSLSGHGVFGTGTELTVLGGGGSGGGGSGGGGSQVQLVQSGPEVKKPGASVKVSCKASGYDFIRYYMNWVRQAPGQGPEWMGAIDPSDGDTTYGQKFQGRVTLTRDTFTSTVYMELSSLRSEDTAVYYCARDWELTNSYGLDVWGQGTTVTVSS | binds
10 | 抗CD123 scFv-C15 (in a CAR on T cells) (scFv, Human scFv from phage display; not shown: rest of the CAR, hinge domain to CD3-zeta domain) scFv: DIQLTQSPSTLSASVGDRVTISCRASQSISSWLAWYQHKPGKAPKLLIYKTSALEDGVPSRFSGSGSGTEFTLTISSLQPDDFATYFCLHYGSYTFGQGTKVDIKGGGGSGGGGSGGGGSEVQLVESGGGLVNPGGSLRLSCEASGFTFSDYYISWIRQAPGKGLEWISYISGSSTYTDFADSVKGRFTISRDNAKNTVFLQMNSLRAEDTAVYYCARDRRGRFDPWGQGTLVTVSS | binds
11 | 抗CD123 scFv-C6 (in a CAR on T cells) (scFv, Human scFv from phage display; not shown: rest of the CAR, hinge domain to CD3-zeta domain) scFv: SYELTQPPSVSVSPGQTARIPCSGADLGDQYVSWYQHQPGQSPLLVIYEDDKRPSGIPERFSGSNSGNTATLTISGTQAMDEADYYCQAWDGNAAIFGGGTKLTVLGGGGSGGGGSGGGGSQVQLVQSGGGSVQPGGSLRLSCAASGFTFTRYSMNWVRQAPGKGLEWVSYISSSSSTIYYADSVKGRFTISRDNAKNSLYLQMNSLRDEDTAVYYCARDGYGGNSDYYGMDVWGQGTTVTVSS | binds
12 | 抗CD123 scFv-C16 (in a CAR on T cells) (scFv, Human scFv from phage display; not shown: rest of the CAR, hinge domain to CD3-zeta domain) scFv: QSVVTQPPSASGTPGQRVTISCSGSSSNIEGNTVSWYQQFPGAAPKLLIYSNSYRASGVPDRFSGSKSGTSASLAISELQSEDEADYYCSAWDDSLNGPVFGGGTELTVLGGGGSGGGGSGGGGSQVQLQESGGGLVQPGGSLRLSCAASGFTFSSYSMNWVRQAPGKGLEWVSYISSSSSTIYYADSVKGRFTISRDNAKNSLYLQMNSLRAEDTAVYYCARDIYGDWDYYYYGMDVWGQGTTVTVSS | binds
13 | 抗CD123 scFv-C14 (in a CAR on T cells) (scFv, Human scFv from phage display; not shown: rest of the CAR, hinge domain to CD3-zeta domain) scFv: DIRMTQSPSSLSASVGDRVTITCQASQDITNYLNWYHQKPGKAPKLLIYDASNLETGVPSRFSGGGSGTDFTFTISSLQSEDIGTYYCQQYDDLPLTFGGGTKVEIKGGGGSGGGGSGGGGSQVQLQESGPGLVKPSETLSLTCTVSGGSISSSSHYWGWIRQPPGKGLEWIGSIYYSGSTYYNPSLKSRVTISVDTSKNQFSLKLSSVTAADTAVYYCARRVWVWPTYGMDVWGQGTTVTVSS | binds
14 | 抗CD123 scFv-C9 (in a CAR on T cells) (scFv, Human scFv from phage display; not shown: rest of the CAR, hinge domain to CD3-zeta domain) scFv: QSVLTQPPSASGTPGQRVTISCSGSNSNIENNYVYWYQHLPGTAPKRLIYQNNQRPSGVPDRFSGSKSGTSASLAISGLRSEDEADYYCSAWDDSLSAWVFGGGTELTVLGGGGSGGGGSGGGGSEVHLVESGGGLVQPGRSLRLSCTASGFTFGDYAMNWVRQAPGKGLEWVGFIRSKASGGTTDYAASVKGRFTISRDDSKSIAYLQMNSLKTEDTAVYYCTRALRGYSYGLFDYWGQGTLVTVSS | binds
